Measurements: publication PMC2768378

Experiments:
[1] = target: single chain H2A.Z-H2B (single stranded H2A.Z-H2B protein) (budding yeast); test: ITC
[2] = target: single chain H2A.Z-H2B (single stranded H2A.Z-H2B protein) (budding yeast); test: CPMG relaxation dispersion NMR

B1: Chz.core (residues 71–132 of Chz1) (domain or fragment)
chain: DMDDAKLDALMGNEGEEEEDDLAEIDTSNIITSGRRTRGKVIDYKKTAEELDKKEPSTGSKD
Work on B1 yielded a Kd [1] of 100 nM, a Kd [2] of 220 nM and a koff [2] of 22 s⁻¹.
